Laboratory results published in the nanobody polyreactivity screen of Harvey et al. (2022).

experiment: yeast display, Sf9 membrane polyspecificity reagent, FACS + sequencing; frameworks hold sequencing errors
How it was run: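 Polyreactivity labels are assigned by the sorting gate from which each nanobody was recovered. The gates were low and high (top ~1%), set on anti-HA fluorescence for expression and streptavidin fluorescence for reagent binding. Before sorting, galactose-induced (36–48 hours) yeast display cells were stained for 1 hour at 4 °C with 10% biotinylated, detergent-solubilized Sf9 membrane reagent.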

Sequence	polyreactivity (PSR sort gate)
QVQLVESGGGLVQAGGSLRLSCAASGLIFYIYAMGRYREAPGKERELVAAISSSGGSTFYADSVKGRFTISRDNAKNTVYLQMNSLKPEDTAVYYCAAYYGGGYGFHRDYWGQGTQVTVSS	high polyreactivity
QVQLVESGGCLVQAGGSLRLSCAASGSIFYYYAMGWYRQAPGKERELVADISISGGSTYYADSVKGRFTISRDNAKNTVYLQMNSLKPEDTAVYYCAATDYLWEPTVSNWGYTFDSWGQGTQVTVSS	low polyreactivity
QVQLVESGGGLVQAGGSLRLSCAASGFTFGGNVMGWYRQAPGKESELVAAITYSGGSTNYADSVKGRFTISRDNAKNTVYLQMNSLKPEDTAVYYCAAGYSYVYWSESAYVYWGQGTQVSVSS	low polyreactivity
QVQLVESGGGLVQAGGSLRLSCAASGRTFRVNAMGWYRQAPGKERELVASITYSGGSTYYADSVKGRFTISRDNAKNTVYLQMNSLKQEDTAVYYCAADWYRSPYDYWGQGTQVTVSS	low polyreactivity
QVQLVESGGGLVQAGGSLRLSCAASGRIFTPNAMGWYRQAPGKERELVAAISRSGGSTYYADSVKGRFTISRDTAKNTVYLQMKSLKPEDTAVDYCNKLRTPSSGLDYWGQGTQVTVSS	high polyreactivity
QVQLVESGGGLVQAGGSLRLSCADSVIIFRVYVMGCYRQAPGKERELVDAISTSGGRTSYADSVKGRFTISRDNAKNTVYLQMNSLKPEDTAVYYCAARPLYSYSQWGYGYWGQGTQVTVSS	high polyreactivity
QVQLVESGGGLVQAGGSLRLSCAASGGIFSGNDMGWYRQAPGKERELVATITSDGSTNYSDSVKGRFTYSRDNAKNTVYLQMNSLKPEDTAVYYCAADGLYWWMYYWGQGTQVTVSS	low polyreactivity
QVQLVESGRGIVQAGGSLRLSCAASGLSFSNYAMGWYRQAPGKERELVARITTSGGRTYYADSVKGRFTISRDNANNTEYLKMNSLKPEDTAVYYCAANNRRRPSYDYDSWGQGTQVTVSS	low polyreactivity
QVQLVESGGGLVQAGGSLRLSCAASGYIFWKNAMGWYRQAPGKERELVAGITIRGGRTYYADSVKGRFTISRDNAKNTVYLQMNSLKPEDTAVYYCNALYDYYDPYGSWGQGTQVTVSS	high polyreactivity
QVQLVESGGGLVQAGGSLRLSCAASGFIFSYYAMGWYRQAPGKERELVAAITDSGGSTYYADSVKGRFTISRDNAKNTVYLQMNSLKPEDTAVYYCAATYWWAYVWAYSHVKSTNDYWGQGTQVTVSS	low polyreactivity
QVQLVESGGGLVQAGGSLRLSCAASGRTLRYYAMGWYRQAPGKERELVAAISRRGGRTYYADSVKGRFTISRDNAKNTVYLQMNSLKPEDTAVYYCNARYDVYRWRYDYDYWGQGTQVTVSS	high polyreactivity
QDQLVDSGGGLVQAGGSLRLSCAASGLSFDLYDMGWYRQAPGKERELVAAIDWSATRTYYADSVKGRFTISRDNAKNTVYLQMNSLKPEDPAVYYCNAEAVYEYWIYDYWGQGTQVTLSS	high polyreactivity
QVQLVESGGGLVQAGGSLRLSCAASGVIFYRNAMGWYRQAPGKERELVATIRYSGGSTYYADSVKGRFTISRDNAKNTVYLEMNSLKPEDSAVYYCNARRWYLPRRSGYGYWGQGTVVTVSS	high polyreactivity
QVQLVESGVGLVQAGGSLRLSSAASGIIFVSNAMRWYRQAPGKERELVATINWSDDSTYYADSVKGRFTISRDNAKKTVSLQMNSLKADYTAVYYCYCGQGTQVTVSS	low polyreactivity
QVQLVESGGGLVQAGGSLRISCAASGRIFGTNAMGWYRQAPGKERELVADITSGGSTNYADSVKGRFTISRDNAKNTVYLQMNSLKPEDTAVYYCAAVVIGDLRWYRDEYWGQGTQVTVSS	low polyreactivity
QVQLVESGGGLVQAGGSLRLSCAASGFIISYYAMGWYRQAPGKERELVATINFSGAGTSYADSVKGRFTISRDNAKNTVYLQMNSLKPEDTAVYYCAARTNSPRGYGSDYWGQGTQVTVSS	high polyreactivity
QVQLVESGGGLVQAGGSLRLSCAASGSTFDTYAMGWYRQAPGKERELVAAISRSGTSTYYADSVKGRFTISRDNAKNTVYLQMKSLKPEDTAVYYCAAYGPRVNGEIGREYYYWGQGTQVTVSS	low polyreactivity
QVQLVESGGGLVQAGGSLRLSCAASGPTFGVNAMGWYRQAPGKERELVAVISSTGSTNYADSVKGRFTISRDNAKNTVYLQMNSLKPEDTAVYYCAVGPNSVGNRSYGFDYWGQGTQVTVSS	low polyreactivity
QFQLVETVGGLVQAGGSLRLSCAASGFTYKSYAMGWYCQAPVKERELVASISRRGGSTYYADSVKGRFTISRDNAKNNVYLQMNSLKPEDTAVYYCNKYFRYRGDYDYWGQGTQVTVSS	high polyreactivity
QVQLVESGGGLVQAGGSLRLSCAASGCTFPLYAMGWYRPAPGKERELVAAITSGGGNTYYADSVKGRFTISRDNAKNTVYLQMNSLKPEDTAVYYCAAVGGYKSYYSYEYDYWGQGTQVTVSS	low polyreactivity
QVQLVESGGGLVQAGGSLRLSCAASGRIFYYNTMGWYRQAPGKERELVAAITRSGGSTYYADSVKGRFTISRDNAKNTVYLQMNSLKPEDTAVYYCAAQRRYDTADHGYWGQGTQVTVSS	high polyreactivity
QVQLVESGGGLVQAGGSLRLSCAASGSTFYEYAMGWYRQAPGKERELVAAISSGGSTYYADSVKGRFTISRDNAKNTVYLQMNSLKPEDTAVYYCNADCQTYGGEYDYWGQGTQVTVSS	low polyreactivity
QVQLVESGGGLVQAGGSLRLSCAASGRTFYAYAMGWYRQAPGKERELVAAISWRGGRTYYADSVKGRFTISRDNAKNTVYLQMNSLKPEDTAVYYCAAEYSYGFDYWGQGTQVTVSS	high polyreactivity
QVQLVESGGGLVQARGSLRLSCAATGSTFDKYAMGRYRQAPGKERELVAAISSSGTRTYYADSVKGRFTISRDNAKITVYLQMNSLKPEDTAVYYCDTGGSNKYYYWGQGTQVTVSS	high polyreactivity
QVQLVESGGGLVQAGGSLRISCAASGYTFYSNAMGWYRQAPGKERELVASIRSRGRSTYYADSVKGRFTISRDNAKYSVYLQMNSLNPEDTAVYYCAALRNKPAVYAYDYWGQGTQVTVSS	low polyreactivity
QVQLVESGGGIVQAGGRLRLSCAASGRIFDDNSMGWYRKAPGKETELVATISSSGVSTSYADSVKGRFTISRDNAKNTVYFQMNSLNPEYTAVYFCNAGYRLRYKFDYWGQGTQVTVAS	low polyreactivity
QVQLVESGGGLVQAGGSLRLSCAASGSTYYYAMGWSRQAPGKERELVAAISSSSGSTYYADSVKGRFTISRDNAKNTVYLQMNSLKPEDTAVYYCAAEGYKGWVYEYDYWGQGTQVTVSS	low polyreactivity
QVQLQESGGGLVQVGGSLRLSCAASGTIFIYGFLGWNRQAPGKERELVASINLGGITNYADSVKGRFTISRDNATNTVYLQMISLKPEDTAVYYCAAYVVTGQNYGYWGQGTQVTVSS	low polyreactivity
QVQLVESGGGLVQAGGSLRLSCSASGITFGRNTKGWYRQAPGKERELVAASDSGGNTYADSVKGRFTISRDNAKNTVYLQMNSLKPEDTAVYYCAVDGGEFSSYGYWGQGTQVTVSS	low polyreactivity
QVQLEESGGGLVQAGGSLRLSCAASGSIFYDYAMGWYRQAPGKERELVAAISKSDGSTYYADSVKGRFTISRDNAKNTVYLQMNSLKPEDTAVYYCNADLIYSYPPEYDYWGQGTQVTVSS	high polyreactivity
